# Assay results taken from US20250154198A1, “PEPTIDE INHIBITORS OF INTERLEUKIN-23 RECEPTOR” (Zealand Pharma A/S, priority 2021, published 2025).
# *1 amine or outer side, *2 acyl side, *3 side chain or, on linkers, in order; H or OH if unused. Bridges are numbered along the chain shown (N, C = ends). Primed or numbered codes have the meaning given here. Where no end group is shown, it is not given here. [ ]: non-standard residue; d: D form. 4‑Aminomethyl‑phenylacetyl = 4-aminomethyl-phenylacetyl unit, its amine closes the lactam, O=C(Cc1ccc(CN[*:1])cc1)[*:2]; 1,3‑dibromopropan‑2‑one(3) = linker giving 1,3-dithio-propan-2-one bridge -SCH2C(=O)CH2S- between Cys; 4‑Aminomethyl‑phenylacetyl″ = N-terminal cap residue, O=C(Cc1ccc(CN[*:1])cc1)[*:2]; Pipz(1-CH2CO,4-CH2CH2NH) = O=C(CN1CCN(CCN[*:1])CC1)[*:2]; Trp(4-F) = N[C@@H](Cc1c[nH]c2cccc(F)c12)C(=O)O; Trp(6-F) = N[C@@H](Cc1c[nH]c2cc(F)ccc12)C(=O)O; 2Nal = N[C@@H](Cc1ccc2ccccc2c1)C(=O)O; AEF = NCCOc1ccc(C[C@H](N)C(=O)O)cc1; 3Pal = N[C@@H](Cc1cccnc1)C(=O)O; αMeL = CC(C)C[C@](C)(N)C(=O)O; CH2COCH2 = O=C(C[*:1])C[*:2]; αMeV = CC(C)[C@](C)(N)C(=O)O; dDab = NCC[C@@H](N)C(=O)O; Orn = NCCC[C@H](N)C(=O)O; Dab = NCC[C@H](N)C(=O)O; Ahx = NCCCCCC(=O)O; βAla = NCCC(=O)O
# B1: Compound 138 (peptide)
# peptide: [4‑Aminomethyl‑phenylacetyl]SE[Trp(4-F)]Q[Dab][AEF][2Nal][αMeL]E[Dab]-NH2
# modifications: lactam N-10, 3-6
# SMILES: CC(C)C[C@]1(C)NC(=O)[C@H](Cc2ccc3ccccc3c2)NC(=O)[C@H](Cc2ccc(OCCN)cc2)NC(=O)[C@@H]2CCNC(=O)CC[C@H](NC(=O)[C@H](CO)NC(=O)Cc3ccc(cc3)CNC(=O)CC[C@@H](C(=O)N[C@@H](CCN)C(N)=O)NC1=O)C(=O)N[C@@H](Cc1c[nH]c3cccc(F)c13)C(=O)N[C@@H](CCC(N)=O)C(=O)N2
# B2: Compound 85 (peptide)
# peptide: Ac-KTCWQC[AEF][2Nal][αMeL]E[dR]-NH2
# modifications: lactam 1-10; linker 3-6 via CH2COCH2
# SMILES: CC(=O)N[C@H]1CCCCNC(=O)CC[C@@H](C(=O)N[C@H](CCCNC(=N)N)C(N)=O)NC(=O)[C@](C)(CC(C)C)NC(=O)[C@H](Cc2ccc3ccccc3c2)NC(=O)[C@H](Cc2ccc(OCCN)cc2)NC(=O)[C@@H]2CSCC(=O)CSC[C@H](NC(=O)[C@H]([C@@H](C)O)NC1=O)C(=O)N[C@@H](Cc1c[nH]c3ccccc13)C(=O)N[C@@H](CCC(N)=O)C(=O)N2
# B3: Compound 84 (peptide)
# peptide: Ac-KSCWQC[AEF][2Nal][αMeL]E[dR]-NH2
# modifications: lactam 1-10; linker 3-6 via CH2COCH2
# SMILES: CC(=O)N[C@H]1CCCCNC(=O)CC[C@@H](C(=O)N[C@H](CCCNC(=N)N)C(N)=O)NC(=O)[C@](C)(CC(C)C)NC(=O)[C@H](Cc2ccc3ccccc3c2)NC(=O)[C@H](Cc2ccc(OCCN)cc2)NC(=O)[C@@H]2CSCC(=O)CSC[C@H](NC(=O)[C@H](CO)NC1=O)C(=O)N[C@@H](Cc1c[nH]c3ccccc13)C(=O)N[C@@H](CCC(N)=O)C(=O)N2
# B4: Compound 126 (peptide)
# peptide: [4‑Aminomethyl‑phenylacetyl]VEWQ[Dab][AEF][2Nal][αMeL]E[Dab]-NH2
# modifications: lactam N-10, 3-6
# SMILES: CC(C)C[C@]1(C)NC(=O)[C@H](Cc2ccc3ccccc3c2)NC(=O)[C@H](Cc2ccc(OCCN)cc2)NC(=O)[C@@H]2CCNC(=O)CC[C@H](NC(=O)[C@H](C(C)C)NC(=O)Cc3ccc(cc3)CNC(=O)CC[C@@H](C(=O)N[C@@H](CCN)C(N)=O)NC1=O)C(=O)N[C@@H](Cc1c[nH]c3ccccc13)C(=O)N[C@@H](CCC(N)=O)C(=O)N2
# B5: Compound 124 (peptide)
# peptide: [4‑Aminomethyl‑phenylacetyl]SEWQ[Orn][AEF][2Nal][αMeL]E[Dab][3Pal]-NH2
# modifications: lactam N-10, 3-6
# SMILES: CC(C)C[C@]1(C)NC(=O)[C@H](Cc2ccc3ccccc3c2)NC(=O)[C@H](Cc2ccc(OCCN)cc2)NC(=O)[C@@H]2CCCNC(=O)CC[C@H](NC(=O)[C@H](CO)NC(=O)Cc3ccc(cc3)CNC(=O)CC[C@@H](C(=O)N[C@@H](CCN)C(=O)N[C@@H](Cc3cccnc3)C(N)=O)NC1=O)C(=O)N[C@@H](Cc1c[nH]c3ccccc13)C(=O)N[C@@H](CCC(N)=O)C(=O)N2
# B6: Compound 136 (peptide)
# peptide: [4‑Aminomethyl‑phenylacetyl]SEWQ[Dab][AEF][2Nal][αMeV]E[Dab]-NH2
# modifications: lactam N-10, 3-6
# SMILES: CC(C)[C@]1(C)NC(=O)[C@H](Cc2ccc3ccccc3c2)NC(=O)[C@H](Cc2ccc(OCCN)cc2)NC(=O)[C@@H]2CCNC(=O)CC[C@H](NC(=O)[C@H](CO)NC(=O)Cc3ccc(cc3)CNC(=O)CC[C@@H](C(=O)N[C@@H](CCN)C(N)=O)NC1=O)C(=O)N[C@@H](Cc1c[nH]c3ccccc13)C(=O)N[C@@H](CCC(N)=O)C(=O)N2
# B7: Compound 90 (peptide)
# peptide: [Pipz(1-CH2CO,4-CH2CH2NH)]SCWQC[AEF][2Nal][αMeL]E[dR]-NH2
# modifications: lactam (positions not given here); linker 3-6 via CH2COCH2; not fully specified (bridges); printed as [(4-(2-Aminoethyl)-piperazine-1-yl)-acetyl](1c)*SC(2a)WQC(2a)[Y(2-aminoethoxy)][2-Nal][2-Me-Leu]E(1c)[{d}R]-[NH2]
# B8: Compound 123 (peptide)
# peptide: [4‑Aminomethyl‑phenylacetyl″]S[Dab]WQE[AEF][2Nal][αMeL]E[Dab][3Pal]-NH2
# modifications: lactam N-10, 3-6
# SMILES: CC(C)C[C@]1(C)NC(=O)[C@H](Cc2ccc3ccccc3c2)NC(=O)[C@H](Cc2ccc(OCCN)cc2)NC(=O)[C@@H]2CCC(=O)NCC[C@H](NC(=O)[C@H](CO)NC(=O)Cc3ccc(cc3)CNC(=O)CC[C@@H](C(=O)N[C@@H](CCN)C(=O)N[C@@H](Cc3cccnc3)C(N)=O)NC1=O)C(=O)N[C@@H](Cc1c[nH]c3ccccc13)C(=O)N[C@@H](CCC(N)=O)C(=O)N2
# B9: Compound 87 (peptide)
# peptide: [Ahx]SCWQC[AEF][2Nal][αMeL]E[dR]-NH2
# modifications: lactam (positions not given here); linker 3-6 via CH2COCH2; not fully specified (bridges); printed as [6-Aminohexanoyl](1c)*SC(2a)WQC(2a)[Y(2-aminoethoxy)][2-Nal][2-Me-Leu]E(1c)[{d}R]-[NH2]
# Biological target: T1, human IL-23R endogenously expressed on DB cells (CRL-2289) (human, UniProt Q5VWK5 24-629)
# T1 sequence (looked up): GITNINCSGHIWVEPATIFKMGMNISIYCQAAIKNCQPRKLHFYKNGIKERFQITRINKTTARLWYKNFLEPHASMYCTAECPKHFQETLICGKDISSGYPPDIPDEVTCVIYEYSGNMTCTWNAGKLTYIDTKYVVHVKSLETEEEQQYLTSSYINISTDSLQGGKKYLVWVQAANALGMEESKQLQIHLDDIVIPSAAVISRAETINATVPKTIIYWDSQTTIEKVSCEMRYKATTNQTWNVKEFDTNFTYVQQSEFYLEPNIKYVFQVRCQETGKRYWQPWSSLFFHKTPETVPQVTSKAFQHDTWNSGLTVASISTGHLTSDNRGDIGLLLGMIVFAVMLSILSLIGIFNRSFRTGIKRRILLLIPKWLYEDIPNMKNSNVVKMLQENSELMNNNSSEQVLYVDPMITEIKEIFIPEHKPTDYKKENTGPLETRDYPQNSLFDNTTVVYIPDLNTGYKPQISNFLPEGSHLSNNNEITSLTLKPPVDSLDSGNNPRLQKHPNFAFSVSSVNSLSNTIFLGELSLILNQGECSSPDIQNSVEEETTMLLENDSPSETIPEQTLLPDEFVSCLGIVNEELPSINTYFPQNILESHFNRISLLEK
# Test: cell-based or functional assay
row,IC50 (pSTAT3),Binder
1,39.4 nM,B1
2,18.9 nM,"[4‑Aminomethyl‑phenylacetyl]SCWQC[AEF][2Nal][αMeL]E[dQ]-NH2 (lactam N-10; linker 3-6 via 1,3‑dibromopropan‑2‑one(3)) [Compound 115]"
3,8.54 nM,B2
4,12.5 nM,B3
5,0.367 nM,"[4‑Aminomethyl‑phenylacetyl]SCWQC[AEF][Trp(6-F)][αMeL]E[Dab][3Pal]-NH2 (lactam N-10; linker 3-6 via 1,3‑dibromopropan‑2‑one(3)) [Compound 121]"
6,16.7 nM,"[4‑Aminomethyl‑phenylacetyl]SCWQC[AEF][2Nal][αMeL]E[βAla]-NH2 (lactam N-10; linker 3-6 via 1,3‑dibromopropan‑2‑one(3)) [Compound 119]"
7,21.5 nM,"[4‑Aminomethyl‑phenylacetyl]SCWQC[AEF][2Nal][αMeL]E[dDab]((2-(trimethyl-2-aminoethoxy)ethoxy)propyl)-NH2 (lactam N-10; linker 3-6 via 1,3‑dibromopropan‑2‑one(3)) [Compound 109]"
8,28 nM,B4
9,0.117 nM,B5
10,10.6 nM,"[4‑Aminomethyl‑phenylacetyl]SCWQC[AEF][2Nal][αMeL]E[dR]-OH (lactam N-10; linker 3-6 via 1,3‑dibromopropan‑2‑one(3)) [Compound 108]"
11,8.8 nM,B6
12,15.8 nM,B7
13,25.3 pM,B8
14,11.3 nM,"[4‑Aminomethyl‑phenylacetyl″]SCWQC[AEF][2Nal][αMeL]E[dH]-NH2 (lactam N-10; linker 3-6 via 1,3‑dibromopropan‑2‑one(3)) [Compound 117]"
15,8.89 nM,B9
